The source of these data is patent US20170176432A1 (OSAKA UNIVERSITY, published 2017).

Test [1] deals with T1, human β2-glycoprotein I (β2-GPI) (human, UniProt P02749 20-345).
T1 construct: whole, on cells
T1 sequence (looked up): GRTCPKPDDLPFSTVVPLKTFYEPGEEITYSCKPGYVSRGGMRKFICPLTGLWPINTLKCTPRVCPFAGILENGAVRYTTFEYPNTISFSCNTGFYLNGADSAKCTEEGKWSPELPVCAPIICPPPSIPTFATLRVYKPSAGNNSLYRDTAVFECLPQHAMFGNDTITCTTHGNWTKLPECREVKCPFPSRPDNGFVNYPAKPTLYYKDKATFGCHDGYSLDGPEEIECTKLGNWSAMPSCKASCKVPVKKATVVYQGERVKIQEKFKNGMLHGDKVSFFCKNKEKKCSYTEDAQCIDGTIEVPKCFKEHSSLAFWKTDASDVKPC
Kind of test: flow cytometry of surface β2-GPI on 293T; HLA-DRB1*15:01.

In test [2] the target is T2, human thyroglobulin (TG) (human, UniProt P01266 20-2768).
T2 construct: whole, on cells; the tag is not described
As to the kind of experiment: flow cytometry of surface TG (anti-histidine antibody) on 293T; HLA-DRB1*15:01.

In test [3] the target is T1, human β2-glycoprotein I (β2-GPI). Kind of test: flow cytometry of surface β2-GPI on 293T; HLA-DRB3*02:02.
In test [4] the target is T2, human thyroglobulin (TG). As to the kind of experiment: flow cytometry of surface TG (anti-histidine antibody) on 293T; HLA-DRB4*01:03.
Test [5] has as its target T1, human β2-glycoprotein I (β2-GPI). Kind of test: flow cytometry of surface β2-GPI on 293T; HLA-DRB4*01:03.

T2 sequence (P01266 20-2768): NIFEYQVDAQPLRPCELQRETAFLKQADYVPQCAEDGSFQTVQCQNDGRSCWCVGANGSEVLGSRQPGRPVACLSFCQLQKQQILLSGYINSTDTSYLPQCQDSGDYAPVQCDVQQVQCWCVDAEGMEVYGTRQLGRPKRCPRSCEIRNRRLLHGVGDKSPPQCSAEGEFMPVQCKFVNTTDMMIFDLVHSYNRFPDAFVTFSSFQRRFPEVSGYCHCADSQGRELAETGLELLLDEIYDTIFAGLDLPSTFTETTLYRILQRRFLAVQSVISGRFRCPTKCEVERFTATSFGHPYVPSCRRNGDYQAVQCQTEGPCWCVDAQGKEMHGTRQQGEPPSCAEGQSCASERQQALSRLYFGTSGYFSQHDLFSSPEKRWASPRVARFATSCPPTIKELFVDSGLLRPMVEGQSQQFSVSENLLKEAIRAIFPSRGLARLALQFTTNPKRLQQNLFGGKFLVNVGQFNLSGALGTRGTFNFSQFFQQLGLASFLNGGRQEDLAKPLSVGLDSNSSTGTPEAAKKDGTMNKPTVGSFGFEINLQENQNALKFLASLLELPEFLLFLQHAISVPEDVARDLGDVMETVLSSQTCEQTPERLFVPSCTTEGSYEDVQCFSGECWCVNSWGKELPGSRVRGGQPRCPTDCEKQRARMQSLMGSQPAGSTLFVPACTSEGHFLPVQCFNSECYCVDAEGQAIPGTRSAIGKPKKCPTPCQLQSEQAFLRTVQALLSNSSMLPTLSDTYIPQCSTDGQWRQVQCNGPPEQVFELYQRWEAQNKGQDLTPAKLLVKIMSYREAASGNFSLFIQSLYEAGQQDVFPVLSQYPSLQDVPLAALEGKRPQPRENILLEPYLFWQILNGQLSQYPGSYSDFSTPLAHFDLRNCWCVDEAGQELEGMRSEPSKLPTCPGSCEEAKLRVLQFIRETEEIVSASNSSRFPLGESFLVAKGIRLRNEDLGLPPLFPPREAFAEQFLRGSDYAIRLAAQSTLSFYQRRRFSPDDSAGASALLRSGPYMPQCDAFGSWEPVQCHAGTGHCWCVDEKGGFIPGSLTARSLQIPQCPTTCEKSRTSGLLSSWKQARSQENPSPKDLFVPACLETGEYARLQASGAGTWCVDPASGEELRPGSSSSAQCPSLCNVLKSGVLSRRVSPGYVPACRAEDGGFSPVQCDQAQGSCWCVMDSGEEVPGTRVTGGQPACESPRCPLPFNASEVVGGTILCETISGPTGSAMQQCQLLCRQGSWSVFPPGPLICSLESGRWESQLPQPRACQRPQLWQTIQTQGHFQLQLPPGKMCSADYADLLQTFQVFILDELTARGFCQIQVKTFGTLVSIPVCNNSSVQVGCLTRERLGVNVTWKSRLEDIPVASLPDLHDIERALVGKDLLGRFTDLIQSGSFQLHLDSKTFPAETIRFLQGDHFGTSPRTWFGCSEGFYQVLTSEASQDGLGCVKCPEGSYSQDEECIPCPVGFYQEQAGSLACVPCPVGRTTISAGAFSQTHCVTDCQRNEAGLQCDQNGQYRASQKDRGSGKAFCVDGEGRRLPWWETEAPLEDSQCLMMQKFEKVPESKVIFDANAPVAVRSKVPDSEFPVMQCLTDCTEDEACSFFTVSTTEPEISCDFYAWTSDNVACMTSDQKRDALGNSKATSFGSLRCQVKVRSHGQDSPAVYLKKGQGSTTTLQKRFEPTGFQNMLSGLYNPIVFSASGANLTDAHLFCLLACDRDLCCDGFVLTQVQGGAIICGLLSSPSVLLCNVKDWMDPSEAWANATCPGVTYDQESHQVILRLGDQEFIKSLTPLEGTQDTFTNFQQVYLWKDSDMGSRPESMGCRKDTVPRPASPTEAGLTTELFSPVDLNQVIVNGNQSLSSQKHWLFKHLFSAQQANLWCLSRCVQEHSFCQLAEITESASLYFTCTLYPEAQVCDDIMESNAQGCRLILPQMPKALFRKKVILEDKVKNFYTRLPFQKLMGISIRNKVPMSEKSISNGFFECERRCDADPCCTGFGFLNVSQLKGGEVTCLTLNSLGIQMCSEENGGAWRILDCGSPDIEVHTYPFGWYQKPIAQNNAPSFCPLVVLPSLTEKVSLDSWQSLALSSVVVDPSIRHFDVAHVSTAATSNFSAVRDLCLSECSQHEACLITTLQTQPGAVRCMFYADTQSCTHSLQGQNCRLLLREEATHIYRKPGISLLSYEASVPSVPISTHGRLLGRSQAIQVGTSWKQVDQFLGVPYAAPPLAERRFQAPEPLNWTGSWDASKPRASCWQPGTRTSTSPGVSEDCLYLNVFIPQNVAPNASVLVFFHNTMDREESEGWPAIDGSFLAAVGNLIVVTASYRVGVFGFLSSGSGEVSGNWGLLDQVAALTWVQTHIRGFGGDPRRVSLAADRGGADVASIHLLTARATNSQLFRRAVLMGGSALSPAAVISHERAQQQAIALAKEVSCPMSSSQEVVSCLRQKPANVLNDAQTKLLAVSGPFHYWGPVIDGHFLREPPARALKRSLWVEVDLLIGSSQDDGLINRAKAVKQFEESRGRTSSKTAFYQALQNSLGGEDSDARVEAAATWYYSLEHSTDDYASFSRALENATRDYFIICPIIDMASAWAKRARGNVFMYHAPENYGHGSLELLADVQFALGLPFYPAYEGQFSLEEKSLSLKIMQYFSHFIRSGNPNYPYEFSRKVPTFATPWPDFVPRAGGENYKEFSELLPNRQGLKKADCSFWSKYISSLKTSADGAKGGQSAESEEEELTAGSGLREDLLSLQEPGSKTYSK

B1: HLA-DR (HLA-DRA*01:01/HLA-DRB1*15:01) (other, human)
MHC II alpha: not shown
MHC II beta: not shown
notes: whole, on cells; also called HLA-DR15
For the molecule B1, the binding result in test [1] and in test [2] was “binds” each time.

B2: HLA-DR (HLA-DRA*01:01/HLA-DRB3*02:02) (other, human)
MHC II alpha: not shown
MHC II beta: not shown
notes: whole, on cells
With B2, in test [3], the binding result is listed as “binds”.

B3: HLA-DR (HLA-DRA*01:01/HLA-DRB4*01:03) (other, human)
MHC II alpha: not shown
MHC II beta: not shown
notes: whole, on cells; also called HLA-DR53
Consider B3, for which the binding result in test [4] and in test [5] was “binds” each time.
